Experimental data as given in US20230340128A1 (Xencor, published 2023).
Residue numbers refer to the chain shown, from its start. Blank lines part the entries; values can stand above or below the binder they belong to.

Columns and labels:
human mesothelin (MSLN) [1] = biological target: T1, human mesothelin (MSLN) (human, UniProt Q13421 296-580, limits assumed); experiment: BLI (Octet), multiple concentrations, bsAb in 1+1 Fab-scFv-Fc format; lower table, column 'human MSLN (M)'
T1 construct: Antigen of the Octet KD values

human mesothelin (MSLN) [2] = biological target: T1, human mesothelin (MSLN); experiment: BLI (Octet), bsAb in 1+1 Fab-scFv-Fc format
human CD28 [3] = biological target: T2, human CD28 (human, UniProt P10747 19-152, limits assumed); experiment: label in the legend box: nominal affinity of the CD28 binding domain (paragraph 422 calls such label values KD); method not stated on the sheet
T2 construct: also called Cluster of Differentiation 28; Tp44

human mesothelin (MSLN) [4] = biological target: T1, human mesothelin (MSLN); experiment: label in the legend box: nominal affinity of the MSLN binding domain (paragraph 422 calls such label values KD); method not stated on the sheet
human CD28 [5] = biological target: T2, human CD28; experiment: method not stated; Monovalent CD28 KD, table headed 1A7[CD28] H1.14_L1.71 (aka 37 nM)
human CD28 [6] = biological target: T2, human CD28; experiment: method not stated; Monovalent CD28 KD, table headed 1A7[CD28] H1_L1.71 (aka 180 nM)
human CD28 [7] = biological target: T2, human CD28; experiment: label in the legend box: nominal affinity of the CD28 binding domain (paragraph 422 calls such label values KD); method not stated on the sheet; remark: listed apart in the source
human mesothelin (MSLN) [8] = biological target: T1, human mesothelin (MSLN); experiment: label in the legend box: nominal affinity of the MSLN binding domain (paragraph 422 calls such label values KD); method not stated on the sheet; remark: listed apart in the source

- Kd (human mesothelin (MSLN) [1]): 3.9 nM
- Kd (human mesothelin (MSLN) [2]): 15.3 nM
- Response (human mesothelin (MSLN) [2]): 0.953
- koff (human mesothelin (MSLN) [2]): 0.00887 s⁻¹
- kon (human mesothelin (MSLN) [2]): 578000 M⁻¹ s⁻¹
B1: XENP32567 (bispecific antibody)
chain 1: QVQLVQSGAEVKKPGASVKVSCKASGYTFTSYWMHWVRQAPGQGLEWMGMIHPNSDNTIYYEKFQGRVTMTVDKSISTAYMELSRLRSDDTAVYYCAIIITPVVPKFDYWGQGTLVTVSSASTKGPSVFPLAPSSKSTSGGTAALGCLVKDYFPEPVTVSWNSGALTSGVHTFPAVLQSSGLYSLSSVVTVPSSSLGTQTYICNVNHKPSDTKVDKKVEPKSCDKTHTCPPCPAPPVAGPSVFLFPPKPKDTLMISRTPEVTCVVVDVKHEDPEVKFNWYVDGVEVHNAKTKPREEEYNSTYRVVSVLTVLHQDWLNGKEYKCKVSNKALPAPIEKTISKAKGQPREPQVYTLPPSREEMTKNQVSLTCDVSGFYPSDIAVEWESDGQPENNYKTTPPVLDSDGSFFLYSKLTVDKSRWEQGDVFSCSVMHEALHNHYTQKSLSLSPGK
chain 2: not shown
chain 3: DIVMTQSPDSLAVSLGERATINCKASHDVGTSVAWYQQKPGQSPKLLIYWASTRHTGVPDRFTGSGSGTDFTLTISSLQAEDVAVYFCQQYYSYPLTFGAGTKLEIKRTVAAPSVFIFPPSDEQLKSGTASVVCLLNNFYPREAKVQWKVDNALQSGNSQESVTEQDSKDSTYSLSSTLTLSKADYEKHKVYACEVTHQGLSSPVTKSFNRGEC

- Kd (human CD28 [3]): 180 nM
- Kd (human mesothelin (MSLN) [4]): 0.3 nM
B2: XENP39534 (bispecific antibody)
heavy 1: B1 chain 1 with M430L, N436S
heavy 2: not shown
light 1: B1 chain 3 with Y92S
light 2: B1 chain 3 with Y92S
notes: also called XENP39534 MSLN (0.3 nM) x CD28 (180 nM) 2+1 mAb-scFv

- Kd (human CD28 [5]): 740 nM
B3: XENP44475 (bispecific antibody)
chain 1: QVQLVQSGAEVKKPGASVKVSCKASGYTFTSYWMHWVRQAPGQGLEWMGMIHPNSDNTIYYEKFQGRVTMTVDKSISTAYMELSRLRSDDTAVYYCAIIITPVVPKFDYWGQGTLVTVSSASTKGPSVFPLAPSSKSTSGGTAALGCLVKDYFPEPVTVSWNSGALTSGVHTFPAVLQSSGLYSLSSVVTVPSSSLGTQTYICNVNHKPSDTKVDKKVEPKSCGGGGSGGGGSQVQLVQSGAEVKKPGASVKVSCKASGYTFTSYWMHWVRQAPGQGLEWMGMIHPNSDNTIYYEKFQGRVTMTVDKSISTAYMELSRLRSDDTAVYYCAIIITPVVPKFDYWGQGTLVTVSSASTKGPSVFPLAPSSKSTSGGTAALGCLVKDYFPEPVTVSWNSGALTSGVHTFPAVLQSSGLYSLSSVVTVPSSSLGTQTYICNVNHKPSDTKVDKKVEPKSCDKTHTCPPCPAPPVAGPSVFLFPPKPKDTLMISRTPEVTCVVVDVKHEDPEVKFNWYVDGVEVHNAKTKPREEEYNSTYRVVSVLTVLHQDWLNGKEYKCKVSNKALPAPIEKTISKAKGQPREPQVYTLPPSREEMTKNQVSLTCDVSGFYPSDIAVEWESDGQPENNYKTTPPVLDSDGSFFLYSKLTVDKSRWEQGDVFSCSVLHEALHSHYTQKSLSLSPGK
chain 2: not shown
chain 3: B1 chain 3 with Y92S
notes: also called 2+1 Fab2-Fc x scFv-Fc MSLN x CD28 bsAb

- Kd (human CD28 [5]): 580 nM
B4: XENP44469 (bispecific antibody)
chain 1: B1 chain 1 with M430L, N436S
chain 2: not shown
chain 3: B1 chain 3 with Y92S
notes: also called 2+1 Fab2-scFv-Fc MSLN x CD28 bsAb

- Kd (human CD28 [6]): 200 nM
B5: XENP39554 (bispecific antibody)
heavy: B1 chain 1 with M430L, N436S
scFv-Fc: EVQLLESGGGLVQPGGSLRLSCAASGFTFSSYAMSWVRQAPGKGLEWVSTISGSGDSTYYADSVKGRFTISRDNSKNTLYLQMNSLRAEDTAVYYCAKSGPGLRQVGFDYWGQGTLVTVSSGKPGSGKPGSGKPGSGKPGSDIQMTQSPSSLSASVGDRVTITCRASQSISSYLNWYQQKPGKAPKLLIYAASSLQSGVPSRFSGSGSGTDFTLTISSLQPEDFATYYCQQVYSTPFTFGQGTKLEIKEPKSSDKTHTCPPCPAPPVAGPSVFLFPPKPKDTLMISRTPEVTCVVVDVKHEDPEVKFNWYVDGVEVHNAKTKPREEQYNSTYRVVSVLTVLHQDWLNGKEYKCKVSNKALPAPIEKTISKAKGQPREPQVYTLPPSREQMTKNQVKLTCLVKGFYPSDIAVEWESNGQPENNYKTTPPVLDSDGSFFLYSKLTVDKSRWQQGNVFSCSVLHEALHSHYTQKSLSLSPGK
light: B1 chain 3 with Y92S
notes: also called H1_L1.71

- Kd (human CD28 [6]): 460 nM
B6: XENP39534 (bispecific antibody)
heavy 1: B1 chain 1 with M430L, N436S
heavy 2: not shown
light 1: B1 chain 3 with Y92S
light 2: B1 chain 3 with Y92S
notes: also called H1_L1.71

- Kd (human mesothelin (MSLN) [1]): 9.2 nM
- Kd (human mesothelin (MSLN) [2]): 30 nM
- Response (human mesothelin (MSLN) [2]): 0.915
- koff (human mesothelin (MSLN) [2]): 0.0147 s⁻¹
- kon (human mesothelin (MSLN) [2]): 491000 M⁻¹ s⁻¹
B7: XENP32552 (bispecific antibody)
chain 1: B1 chain 1 with M50W
chain 2: not shown
chain 3: B1 chain 3 with Y92S

- Kd (human CD28 [3]): 180 nM
- Kd (human mesothelin (MSLN) [4]): 90 nM
B8: XENP39570 (bispecific antibody)
heavy: B1 chain 1 with M50W, M430L, N436S
scFv-Fc: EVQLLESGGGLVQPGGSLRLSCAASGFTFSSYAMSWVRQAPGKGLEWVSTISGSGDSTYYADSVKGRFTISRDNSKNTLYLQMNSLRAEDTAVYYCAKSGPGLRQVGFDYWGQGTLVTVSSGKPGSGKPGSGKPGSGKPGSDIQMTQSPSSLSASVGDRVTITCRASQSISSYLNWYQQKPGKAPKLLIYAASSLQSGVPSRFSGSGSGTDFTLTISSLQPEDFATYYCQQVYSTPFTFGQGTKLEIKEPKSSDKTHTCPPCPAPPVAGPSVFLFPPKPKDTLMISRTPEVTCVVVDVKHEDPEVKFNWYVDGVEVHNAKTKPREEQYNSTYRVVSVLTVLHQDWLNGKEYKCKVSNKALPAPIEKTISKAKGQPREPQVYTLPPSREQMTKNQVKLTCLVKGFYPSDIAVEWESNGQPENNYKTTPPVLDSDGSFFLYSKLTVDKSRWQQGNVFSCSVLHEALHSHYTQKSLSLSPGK
light: B1 chain 3 with T31Q, Y92S
notes: also called XENP39570 MSLN (90 nM) x CD28 (180 nM) 1+1 Fab-scFv-Fc

- Kd (human CD28 [6]): 4900 nM
B9: XENP44474 (bispecific antibody)
chain 1: B3 chain 1
chain 2: not shown
chain 3: B1 chain 3 with Y92S
notes: as for B3

- Kd (human CD28 [6]): 1200 nM
B10: XENP44468 (bispecific antibody)
chain 1: B1 chain 1 with M430L, N436S
chain 2: not shown
chain 3: B1 chain 3 with Y92S
notes: as for B4

- Kd (human CD28 [5]): 660 nM
B11: XENP39533 (bispecific antibody)
heavy 1: B1 chain 1 with M430L, N436S
heavy 2: not shown
light 1: B1 chain 3 with Y92S
light 2: B1 chain 3 with Y92S
notes: also called H1.14_L1.71

- Kd (human CD28 [7]): 180 nM
- Kd (human mesothelin (MSLN) [8]): 90 nM
B12: XENP44479 (bispecific antibody)
heavy: B3 chain 1 with M50W, M283W
scFv-Fc: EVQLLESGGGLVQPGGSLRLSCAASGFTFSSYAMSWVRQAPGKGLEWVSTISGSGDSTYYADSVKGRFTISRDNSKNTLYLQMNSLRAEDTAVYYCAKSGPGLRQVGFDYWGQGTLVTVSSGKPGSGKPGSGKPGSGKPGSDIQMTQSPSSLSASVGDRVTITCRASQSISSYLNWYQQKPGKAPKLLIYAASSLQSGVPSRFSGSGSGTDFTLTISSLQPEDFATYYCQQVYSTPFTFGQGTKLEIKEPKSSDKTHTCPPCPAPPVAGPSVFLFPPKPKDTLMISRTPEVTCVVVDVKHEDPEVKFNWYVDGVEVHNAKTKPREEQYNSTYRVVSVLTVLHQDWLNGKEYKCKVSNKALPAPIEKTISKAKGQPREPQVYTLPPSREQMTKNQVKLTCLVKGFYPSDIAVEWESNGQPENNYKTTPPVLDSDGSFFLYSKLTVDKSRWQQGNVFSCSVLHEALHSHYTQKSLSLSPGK
light 1: B1 chain 3 with T31Q, Y92S
light 2: B1 chain 3 with T31Q, Y92S
notes: also called XENP44479 MSLN (90 nM) x CD28 (180 nM) 2+1 Fab2-Fc x scFv-Fc
